Source: article PMC10435562, “VEGF-B prevents excessive angiogenesis by inhibiting FGF2/FGFR1 pathway” (Signal Transduction and Targeted Therapy, 2023)

B4: Human VEGF-B167 (ligand, UniProt P49765-2 22-188, looked up)
chain: PVSQPDAPGHQRKVVSWIDVYTRATCQPREVVVPLTVELMGTVAKQLVPSCVTVQRCGGCCPDDGLECVPTGQHQVRMQILMIRYPSSQLGEMSLEEHSQCECRPKKKDSAVKPDSPRPLCPRCTQHHQRPDPRTCRCRCRRRSFLRCQGRGLELNPDTCRCRKLRR
notes: UniProt P49765 is printed for the VEGF-B167 peptides; Bought recombinant protein; source: bought: PeproTech (100-20B)

Legend:
[1] = molecular target: FGF2 (BFF-H4117, Acro Biosystems) (UniProt P09038); experiment: SPR; VEGF-B immobilised at 3820 RU on CM5 (the FGF2 surface is not described); FGFR1 DI (18.75-600 nM), DII (3.125-100 nM), DIII (12.5-400 nM), DII-III (25-800 nM) flowed at 10 µl/min
Chain of FGF2 (BFF-H4117, Acro Biosystems) (UniProt P09038) (P09038 143-288): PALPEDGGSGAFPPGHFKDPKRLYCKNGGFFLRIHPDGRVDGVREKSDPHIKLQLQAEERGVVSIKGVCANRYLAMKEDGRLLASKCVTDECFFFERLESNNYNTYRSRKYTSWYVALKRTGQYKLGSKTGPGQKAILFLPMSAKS

Human VEGF-B167 [2] = molecular target: B4; experiment: as above
[3] = molecular target: T1, FGF2 (BFF-H4117, Acro Biosystems) (UniProt P09038 143-288); experiment: as above; conditions: both partners purified
T1 construct: fibroblast growth factor 2 (basic FGF); Immobilised on the CM5 chip for SPR; also called basic FGF; fibroblast growth factor 2; source: bought: Acro Biosystems (BFF-H4117)
T1 sequence (P09038 143-288): as above

Human VEGF-B167 [4] = molecular target: B4; experiment: SPR; VEGF-B immobilised at 3820 RU on CM5 (the VEGF-C surface is not described); heterodimer proteins flowed at 1.875-60 nM, 10 µl/min; conditions: both partners purified
[5] = molecular target: T2, FGFR1-Fc (Z03223, Genscript) (UniProt P11362 22-376); experiment: SPR; BIAcore 8000; VEGF-B, FGF2 or PlGF immobilised (5389, 1860, 4700 RU) on CM5 by amine coupling; FGFR1-Fc flowed at 12.5-400 nM, 30 µl/min; 1:1 binding model, KD = kd/ka; conditions: both partners purified
T2 construct: fibroblast growth factor receptor 1 part of a bought Fc fusion; also called FGFR1 homodimer; FGFR1/FGFR1; source: bought: Genscript (Z03223)
T2 sequence (looked up): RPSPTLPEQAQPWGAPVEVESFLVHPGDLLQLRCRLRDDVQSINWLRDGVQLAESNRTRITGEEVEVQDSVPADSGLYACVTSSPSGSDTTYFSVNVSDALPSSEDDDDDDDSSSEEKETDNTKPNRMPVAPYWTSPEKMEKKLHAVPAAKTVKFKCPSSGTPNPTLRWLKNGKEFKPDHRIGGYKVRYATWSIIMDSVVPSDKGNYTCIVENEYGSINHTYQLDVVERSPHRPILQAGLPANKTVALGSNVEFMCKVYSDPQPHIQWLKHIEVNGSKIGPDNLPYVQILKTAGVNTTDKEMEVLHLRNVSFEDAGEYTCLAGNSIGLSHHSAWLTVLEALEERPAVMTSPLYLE

## FGFR1 DII-III (domain or fragment)
[1]
  Kd: 63 nM
Human VEGF-B167 [2]
  Kd: 49 nM

## FGFR1 DIII (domain or fragment)
[1]
  Kd: 43 nM
Human VEGF-B167 [2]
  Kd: 64 nM

## FGFR1 DII (domain or fragment)
[1]
  Kd: 71 nM
Human VEGF-B167 [2]
  Kd: 101 nM

B1: FGFR1 DI (domain or fragment)
chain: PTLPEQAQPWGAPVEVESFLVHPGDLLQLRCRLRDDVQSINWLRDGVQLAESNRTRITGEEVEVQDSVPADSGLYACVTSSPSGSDTTYFSVNVS
[3]
  Kd: 245 nM
Human VEGF-B167 [2]; both partners purified
  Kd: 532 nM

B2: FGFR1 ECD-L-VEGFR1 ECD (other)
chain: RPSPTLPEQAQPWGAPVEVESFLVHPGDLLQLRCRLRDDVQSINWLRDGVQLAESNRTRITGEEVEVQDSVPADSGLYACVTSSPSGSDTTYFSVNVSDALPSSEDDDDDDDSSSEEKETDNTKPNRMPVAPYWTSPEKMEKKLHAVPAAKTVKFKCPSSGTPNPTLRWLKNGKEFKPDHRIGGYKVRYATWSIIMDSVVPSDKGNYTCIVENEYGSINHTYQLDVVERSPHRPILQAGLPANKTVALGSNVEFMCKVYSDPQPHIQWLKHIEVNGSKIGPDNLPYVQILKTAGVNTTDKEMEVLHLRNVSFEDAGEYTCLAGNSIGLSHHSAWLTVLEALEERPAVMTSPLYLESKLKDPELSLKGTQHIMQAGQTLHLQCRGEAAHKWSLPEMVSKESERLSITKSACGRNGKQFCSTLTLNTAQANHTGFYSCKYLAVPTSKKKETESAIYIFISDTGRPFVEMYSEIPEIIHMTEGRELVIPCRVTSPNITVTLKKFPLDTLIPDGKRIIWDSRKGFIISNATYKEIGLLTCEATVNGHLYKTNYLTHRQTNTIIDVQISTPRPVKLLRGHTLVLNCTATTPLNTRVQMTWSYPDEKNKRASVRRRIDQSNSHANIFYSVLTIDKMQNKDKGLYTCRVRSGPSFKSVNTSVHIYDKAFITVKHRKQQVLETVAGKRSYRLSMKVKAFPSPEVVWLKDGLPATEKSARYLTRGYSLIIKDVTEEDAGNYTILLSIKQSNVFKNLTATLIVNVKPQIYEKAVSSFPDPALYPLGSRQILTCTAYGIPQPTIKWFWHPCNHNHSEARCDFCSNNEESFILDADSNMGNRIESITQRMAIIEGKNKMASTLVVADSRISGIYICIASNKVGTVGRNISFYITDVPNGFHVNLEKMPTEGEDLKLSCTVNKFLYRDVTWILLRTVNNRTMHYSISKQKMAITKEHSITLNLTIMNVSLQDSGTYACRARNVYTGEEILQKKEITIRDQEAPYLLRNLSDHTVAISSSTTLDCHANGVPEPQITWFKNNHKIQQEPGIILGPGSSTLFIERVTEEDEGVYHCKATNQKGSVESSAYLTVQGTSDKSNLE
Human VEGF-B167 [4]
  Kd: 3.7 nM

B3: VEGFR1 ECD-L-FGFR1 ECD (other)
chain: SKLKDPELSLKGTQHIMQAGQTLHLQCRGEAAHKWSLPEMVSKESERLSITKSACGRNGKQFCSTLTLNTAQANHTGFYSCKYLAVPTSKKKETESAIYIFISDTGRPFVEMYSEIPEIIHMTEGRELVIPCRVTSPNITVTLKKFPLDTLIPDGKRIIWDSRKGFIISNATYKEIGLLTCEATVNGHLYKTNYLTHRQTNTIIDVQISTPRPVKLLRGHTLVLNCTATTPLNTRVQMTWSYPDEKNKRASVRRRIDQSNSHANIFYSVLTIDKMQNKDKGLYTCRVRSGPSFKSVNTSVHIYDKAFITVKHRKQQVLETVAGKRSYRLSMKVKAFPSPEVVWLKDGLPATEKSARYLTRGYSLIIKDVTEEDAGNYTILLSIKQSNVFKNLTATLIVNVKPQIYEKAVSSFPDPALYPLGSRQILTCTAYGIPQPTIKWFWHPCNHNHSEARCDFCSNNEESFILDADSNMGNRIESITQRMAIIEGKNKMASTLVVADSRISGIYICIASNKVGTVGRNISFYITDVPNGFHVNLEKMPTEGEDLKLSCTVNKFLYRDVTWILLRTVNNRTMHYSISKQKMAITKEHSITLNLTIMNVSLQDSGTYACRARNVYTGEEILQKKEITIRDQEAPYLLRNLSDHTVAISSSTTLDCHANGVPEPQITWFKNNHKIQQEPGIILGPGSSTLFIERVTEEDEGVYHCKATNQKGSVESSAYLTVQGTSDKSNLERPSPTLPEQAQPWGAPVEVESFLVHPGDLLQLRCRLRDDVQSINWLRDGVQLAESNRTRITGEEVEVQDSVPADSGLYACVTSSPSGSDTTYFSVNVSDALPSSEDDDDDDDSSSEEKETDNTKPNRMPVAPYWTSPEKMEKKLHAVPAAKTVKFKCPSSGTPNPTLRWLKNGKEFKPDHRIGGYKVRYATWSIIMDSVVPSDKGNYTCIVENEYGSINHTYQLDVVERSPHRPILQAGLPANKTVALGSNVEFMCKVYSDPQPHIQWLKHIEVNGSKIGPDNLPYVQILKTAGVNTTDKEMEVLHLRNVSFEDAGEYTCLAGNSIGLSHHSAWLTVLEALEERPAVMTSPLYLE
Human VEGF-B167 [4]
  Kd: 1.4 nM

## B4
[5]
  Kd: 17 nM
